Changes are numbered by the printed parent chain. In names and notes the source's numbering stands.
B1: G160E: MGMT polypeptide with mutation G160E (protein)
chain: MDKDCEMKRTTLDSPLGKLELSGCEQGLHEIKLLGKGTSAADAVEVPAPAAVLGGPEPLMQCTAWLNAYFHQPEAIEEFPVPALHHPVFQQESFTRQVLWKLLKVVKFGEVISYQQLAALAGNPKAARAVGGAMRGNPVPILIPCHRVVCSSGAVGNYSEGLAVKEWLLAHEGHRLGKPGLGGSSGLAGAWLKGAGATSGSPPAGRN
B2: G160H: MGMT polypeptide with mutation G160H (protein)
chain: B1 chain with E160H
B3: G160P: MGMT polypeptide with mutation G160P (protein)
chain: B1 chain with E160P
B4: A170S: MGMT polypeptide with mutation A170S (protein)
chain: B1 chain with E160G, A170S
B5: wild-type MGMT: reference MGMT polypeptide according to SEQ ID NO: 1 (GenBank NP_002403.3); used as control (protein)
chain: B1 chain with E160G
modifications: REGION 1..207: note = Wild Type MGMT
notes: used as control

tested on: U251 human glioblastoma cell line; assay: in vitro FM-HCR assay of MGMT activity (mPlum O^6MeG reporter plasmid); assay type: cell-based; settings: 100 μM O^6BG; U251 cells; flow cytometry 24 h after transfection; damaged/undamaged reporter; inversely related to MGMT activity
Method in brief: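 U251 cells transfected with MGMT variant plasmid, mPlum O^6MeG reporter (or undamaged mPlum plasmid) and BFP control, in 100 μM O^6BG or 0.1% DMSO; flow cytometry at 24 h. mPlum count×intensity normalized to BFP; percent reporter expression = damaged/undamaged ×100, inversely related to MGMT activity.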

Row | Molecule | Reporter expression (%) mean, O^6BG [%]
1 | B1 | 63.3
2 | B2 | 21.3
3 | B3 | 47.5
4 | B4 | 85.0
5 | B5 | 70.0

same assay, conditions: 0.1% DMSO; U251 cells; flow cytometry 24 h after transfection; damaged/undamaged reporter; inversely related to MGMT activity

Row | Molecule | Reporter expression (%) mean, DMSO [%]
6 | B1 | 15.3
7 | B2 | 10.3
8 | B3 | 22.8
9 | B4 | 15.8
10 | B5 | 18.5

same assay, conditions: DMSO condition; determined from percent reporter expression

Row | Molecule | MGMT activity (a.u.) DMSO [a.u.]
11 | B1 | 6.56
12 | B2 | 9.68
13 | B3 | 4.40
14 | B4 | 6.35
15 | B5 | 5.41

same assay, conditions: DMSO condition; relative to wild-type MGMT in same condition

Row | Molecule | MGMT activity (% of WT) DMSO
16 | B1 | 121.3 % of WT
17 | B2 | 179.0 % of WT
18 | B3 | 81.3 % of WT
19 | B4 | 117.5 % of WT
20 | B5 | 100.0 % of WT

same assay, conditions: MGMT activity (a.u.) in O^6BG divided by DMSO x 100; higher values indicate resistance

Row | Molecule | Relative MGMT activity (%)
21 | B1 | 24.1
22 | B2 | 48.4
23 | B3 | 47.9
24 | B4 | 18.5
25 | B5 | 26.4

same assay, conditions: O^6BG condition; determined from percent reporter expression

Row | Molecule | MGMT activity (a.u.) O^6BG [a.u.]
26 | B1 | 1.58
27 | B2 | 4.69
28 | B3 | 2.11
29 | B4 | 1.18
30 | B5 | 1.43

same assay, conditions: O^6BG condition; relative to wild-type MGMT in same condition

Row | Molecule | MGMT activity (% of WT) O^6BG
31 | B1 | 110.7 % of WT
32 | B2 | 328.1 % of WT
33 | B3 | 147.4 % of WT
34 | B4 | 82.4 % of WT
35 | B5 | 100.0 % of WT

same assay, conditions: lower values indicate resistance to O^6BG

Row | Molecule | Ratio percent reporter expression (O^6BG/DMSO)
36 | B1 | 4.15
37 | B2 | 2.06
38 | B3 | 2.09
39 | B4 | 5.40
40 | B5 | 3.78

same assay, conditions: percentage difference in relative MGMT activity between variant and wild-type MGMT

Row | Molecule | O^6BG resistance relative to WT (%)
41 | B1 | −8.8
42 | B2 | 83.3
43 | B3 | 81.2
44 | B4 | −29.9
45 | B5 | 0.0

From US20250135039A1, “INHIBITOR-RESISTANT MGMT MODIFICATIONS AND MODIFICATION OF MGMT-ENCODING NUCLEIC ACIDS” (Ensoma, Inc., priority 2022, published 2025)
